From publication PMC6274998, “Mycobacterium tuberculosis ClpC1 N-Terminal Domain Is Dispensable for Adaptor Protein-Dependent Allosteric Regulation” (International Journal of Molecular Sciences, 2018) come the findings set out here.

This test deals with T1, ∆NTD-ClpC1 (ClpC1 truncation mutant lacking N-terminal residues M1-Y145) (Mycobacterium tuberculosis H37Rv, UniProt P9WPC9 146-848).
T1 construct: ClpC1, M. tuberculosis H37Rv, Rv3596c, lacking N-terminal residues M1-Y145 (begins at residue 146); also called ∆NTD-ClpC1 truncation; not shown: His6-SUMO, N-terminal, cleaved
T1 sequence: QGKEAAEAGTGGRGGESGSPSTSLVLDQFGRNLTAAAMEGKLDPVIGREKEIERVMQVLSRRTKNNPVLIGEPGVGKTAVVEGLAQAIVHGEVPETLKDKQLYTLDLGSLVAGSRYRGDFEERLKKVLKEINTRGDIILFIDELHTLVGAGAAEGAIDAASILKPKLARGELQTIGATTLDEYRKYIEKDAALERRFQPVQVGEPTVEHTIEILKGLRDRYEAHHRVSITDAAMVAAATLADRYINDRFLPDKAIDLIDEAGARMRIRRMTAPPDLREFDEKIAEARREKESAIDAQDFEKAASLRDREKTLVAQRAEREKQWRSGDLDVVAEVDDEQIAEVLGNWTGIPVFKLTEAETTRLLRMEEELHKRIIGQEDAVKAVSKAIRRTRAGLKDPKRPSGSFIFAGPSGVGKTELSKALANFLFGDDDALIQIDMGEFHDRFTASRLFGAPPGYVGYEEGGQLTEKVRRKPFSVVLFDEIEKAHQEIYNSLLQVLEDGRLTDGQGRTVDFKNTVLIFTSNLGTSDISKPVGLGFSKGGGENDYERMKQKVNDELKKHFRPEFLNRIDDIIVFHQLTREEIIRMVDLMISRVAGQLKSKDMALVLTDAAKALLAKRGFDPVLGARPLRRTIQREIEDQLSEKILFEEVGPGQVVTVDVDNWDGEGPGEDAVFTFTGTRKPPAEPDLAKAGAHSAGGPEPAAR
In words: pull-down. The following applies: both partners purified.

B1: His6-SUMO-ClpS (Mycobacterium tuberculosis ClpS adaptor protein, His6-SUMO fusion) (natural protein)
chain: MAVVSAPAKPGTTWQRESAPVDVTDRAWVTIVWDDPVNLMSYVTYVFQKLFGYSEPHATKLMLQVHNEGKAVVSAGSRESMEVDVSKLHAAGLWATMQQDR
notes: also called His6-ClpS; His6-tagged ClpS; not shown: His6, N-terminal, kept; SUMO, N-terminal, kept
On to B1, for which the binding result was “binds”.
